Assay [1] relates to human fetal liver cells. The experiment in a line: Colony formation assay (Stem cell CFU kit, 11 day) of fetal liver cells. Conditions: FIG. 9. Format: cell-based.
For assay [2], the system named is human umbilical vein endothelial cells (HUVEC). The experiment in a line: Endothelial cell proliferation assay (crystal violet, A540). Format: cell-based. As to the method: To determine whether B19 parvovirus capsids can inhibit endothelial cell proliferation, assays were performed in which primary human umbilical vein endothelial cells, plated at a density of 1.5×10^4 cells per well in a 24 well plate, were incubated with B19 parvovirus capsids in the presence of 0.5% fetal calf serum+10.0 ng/ml basic fibroblast growth factor. The various B19 parvovirus capsid preparations (i.e., VP1/2 or capsids made with only VP1 or VP2) were added to each well on the following day and the cells with capsids were incubated for additional 72 hours. Cell proliferation was then determined by using a crystal violet dye assay. Accordingly, capsid treated cells were washed in PBS, fixed in 3.7% formaldehyde, and incubated with crystal violet. The dye was then removed by extensive washes with distilled water. The cell-associated crystal violet was solubilized with 10% acetic acid and quantified at absorbance 540 nm in an ELISA plate reader.
Thus, from left to right, the bars represent the absorbance at 540 nm with 0 μg/ml, 0.01 μg/ml, 0.1 μg/ml, 1.0 μg/ml, and 10.0 μg/ml. […] The standard deviation was within 10%.

The next assay concerns HUVEC cells. The experiment in a line: Endothelial cell migration assay (modified Boyden chamber). Format: cell-based, human. Here is the method: The effect of B19 parvovirus capsid preparations on cell migration was also determined. The migration assays were performed using a modified Boyden chamber assay (Neuroprobe, Inc.). Basic fibroblast growth factor (40 ng/ml) was added to stimulate migration of the HUVEC cells through a collagen 1 coated 8 μm pore size millipore filter. Cells were incubated for 60 min with the various B19 parvovirus capsid preparations (i.e., VP1/2 or capsids made with only VP1 or VP2) prior to conducting the migration assay. To perform the migration assay, the Boyden chamber was incubated for 4.5 h at 37° C. in a 10% CO2 atmosphere. The filters were subsequently removed and were fixed in 3.7% formaldehyde. Cell migration was visualized by staining the filters overnight in Gill's Hematoxylin. The number of migrating cells were scored by counting stained cells on the migrating side of the filter per high power magnification field. (See FIG. 15).

Assay [3] concerns human fetal liver cells. The experiment in a line: Colony formation assay (Stem cell CFU kit, 11 day) of fetal liver cells. Format: cell-based. The settings on record: fetal liver cells. The text has this: In a first set of experiments, it was discovered that B19 parvovirus capsids inhibit hematopoiesis and that these molecules could be used to reduce the overproduction of red blood cells, white blood cells, and blood platelets, as is experienced by patients suffering from hematological proliferative diseases, such as Polycytemia Vera. (See FIG. 1A). In a first set of experiments, fresh human fetal liver cells, umbilical cord blood cells, and bone marrow cells were contacted with recombinant B19 parvovirus capsids in a colony formation assay. The general features of a colony formation assay are depicted in FIG. 1B. The ability of the B19 parvovirus capsids to inhibit hematopoiesis was verified by the reduction of colony formation in the presence of the capsids, as compared to untreated control populations of cells. A more detailed description of these experiments is provided below.
To obtain fetal liver tissue, human fetuses 6-12 weeks of gestational age were obtained from legal abortions; the patients had volunteered to donate fetal tissue. Gestational age was estimated according to specific anatomical markers and is given as menstruational age. Abortions were performed with vacuum aspirations. Fetal liver was dissected under sterile conditions, placed in a sterile tube containing RPMI1640 and disintegrated by passage through a vinyl mesh to form a single cell suspension. Nucleated cells were then washed three times, counted and diluted in culture medium.
A commercial kit—the “Stem cell CFU kit” (GIBCO BRL, Life Technology Inc., NY, USA)—was used to perform the colony formation assays. The kit provides a semi-solid support that mimics the extracellular matrix produced by stromal cells. Other components included in the kit are: Iscove's modified Dulbecco's medium, modified fetal bovine serum, methylcellulose, 2-mercaptoethanol, conditioned medium and erythropoietin. The colonies that were formed in the assay were identified as BFU-E (burst forming unit-erythroid cells) with densely packed hemoglobonized cells, CFU-GM (colony forming units-granulocytes, macrophages) with arrangements of non-hemoglobinized cells, and CFU-GEMM (colony forming units-granulocytes, erythroid cells, macrophages, megakaryocytes) with hemoglobinized cells and small and large peripheral cells.
Recombinant B19 parvovirus empty capsid particles (Kajigaya et al., Proc Natl Acad Sci USA, 88:4646 (1991)) were prepared in a recombinant baculovirus-insect cell (Spodofera frugiperda) expression system. (Kajigaya et al., Proc Natl Acad Sci USA, 88:4646 (1991)). The isolated or purified capsids were diluted in buffer (20 mM Tris, 0.5M NaCl, pH 8.5) and 30 μL of each dilution was added to approximately 25×10^3 cells (50×10^3 for postnatal cells) in 100 μL of culture medium and incubated for 1 hour at 4° C. The mixtures were then transferred to incubation dishes and culture medium was added to a final volume of 0.5 ml per well. The cells were then incubated for 11 days in a humidified atmosphere at 5% CO2, and were scored for BFU-E, CFU-GM and CFU-GEMM derived colony formation.

In the case of “NKGTQQYTDQ (OTHER INFORMATION: Peptide fragments derived from parvovirus capsid particles) [Peptide IV]”, in the assay with human fetal liver cells [1], the “inhibition of hematopoiesis and cell growth (colony formation) by deletion series peptides” value is “significantly inhibit hematopoiesis and cell growth”.

For the molecule QQY [Peptide VIII], the “inhibition of hematopoiesis and cell growth (colony formation) by deletion series peptides” value in the assay on human fetal liver cells [1] is “significantly inhibit hematopoiesis and cell growth”.

B1: VP2 capsids: B19 parvovirus capsids having only VP2 (protein)
chain: MTSVNSAEASTGAGGGGSNSVKSMWSEGATFSANSVTCTFSRQFLIPYDPEHHYKVFSPAASSCHNASGKEAKVCTISPIMGYSTPWRYLDFNALNLFFSPLEFQHLIENYGSIAPDALTVTISEIAVKDVTDKTGGGVQVTDSTTGRLCMLVDHEYKYPYVLGQGQDTLAPELPIWVYFPPQYAYLTVGDVNTQGISGDSKKLASEESAFYVLEHSSFQLLGTGGTASMSYKFPPVPPENLEGCSQHFYEMYNPLYGSRLGVPDTLGGDPKFRSLTHEDHAIQPQNFMPGPLVNSVSTKEGDSSNTGAGKALTGLSTGTSQNTRISLRPGPVSQPYHHWDTDKYVTGINAISHGQTTYGNAEDKEYQQGVGRFPNEKEQLKQLQGLNMHTYFPNKGTQQYTDQIERPLMVGSVWNRRALHYESQLWSKIPNLDDSFKTQFAALGGWGLHQPPPQIFLKILPQSGPIGGIKSMGITTLVQYAVGIMTVTMTFKLGPRKATGRWNPQPGVYPPHAAGHLPYVLYDPTATDAKQHHRHGYEKPEELWTAKSRVHPL
B1: in assay [2] (10.0 μg/ml, FIG. 14), the “inhibition of endothelial cell proliferation” value was “significant inhibition”. The “lowest concentration that efficiently inhibits endothelial cell proliferation” value in assay [2] (72 hours, 10.0 ng/ml basic fibroblast growth factor, FIG. 14, 'as low as') worked out at 1.0 µg/mL. Moreover, the “inhibition of endothelial cell migration compared with other capsid preparations” value in the assay with HUVEC cells (FIG. 15) is “significantly more potent than that observed with either native capsids (VP1/2) or capsids having only VP1”. The “lowest concentration that effectively inhibited endothelial cell migration” value in the assay on HUVEC cells (basic fibroblast growth factor 40 ng/ml, FIG. 15, 'as low as') was determined as 1 µg/mL. For the same molecule, the “inhibition of colony formation” value in the assay on human fetal liver cells [3] (1 μg/ml VP2 capsid, FIG. 4) is on record as “Approximately 50%”. Also, the “colony formation, % of the control” value with human fetal liver cells [3] (30 μg/mL, FIG. 5) was “less than 30 % of the control”. Besides, the “inhibition of hematopoietic cell growth” value with human fetal liver cells [3] (30 μg/ml, FIG. 3) was “significant inhibition”. Moreover, the “lowest concentration at which inhibition of colony formation of hematopoietic cells was seen” value in the assay on human fetal liver cells [3] (11 day colony formation assay, 'as little as' / 'as low as') came out at 3 µg/mL. Moreover, the “inhibition of colony formation of hematopoietic stem cells compared with VP1/2 capsids” value in the assay on human fetal liver cells [3] (FIG. 4) was “as effectively as VP1/2 capsids”.

The values are drawn from patent US6818612B2, “Use of parvovirus capsid particles in the inhibition of cell proliferation and migration” (priority 1998, dated 2004).
